Experimental data reported in article PMC11417369, “DNA sequence and chromatin differentiate sequence-specific transcription factor binding in the human malaria parasite Plasmodium falciparum”.

T1: AP2-HC D1 (Plasmodium falciparum, UniProt Q8IKR9 1316-1374)
T1 sequence: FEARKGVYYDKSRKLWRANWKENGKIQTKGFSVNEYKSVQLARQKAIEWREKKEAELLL

T2: AP2-LT D1 (Plasmodium falciparum, UniProt Q8IAM1 2520-2577)
T2 sequence: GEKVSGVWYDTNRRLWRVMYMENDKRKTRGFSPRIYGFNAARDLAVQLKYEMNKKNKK

T3: PF3D7_0420300 D1 (Plasmodium falciparum, UniProt Q8I1N6 1956-2015)
T3 sequence: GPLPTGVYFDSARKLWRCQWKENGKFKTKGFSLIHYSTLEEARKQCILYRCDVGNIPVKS

B1: CACACA_site4721 (dsDNA)
DNA 1: AACATTATAGGACACACACACACATATATATATATA
DNA 2: TATATATATATATGTGTGTGTGTGTCCTATAATGTT
B2: CACACA_negctrl_site1292 (dsDNA)
DNA 1: TATATTTAGAATACAATCTTAAAGTTGAAATAAAAT
DNA 2: ATTTTATTTCAACTTTAAGATTGTATTCTAAATATA
B3: CACACA_negctrl_site1027 (dsDNA)
DNA 1: ATTAAAAAGACAAAAAAAAAATTTTTTTTTTTTTTT
DNA 2: AAAAAAAAAAAAAAATTTTTTTTTTGTCTTTTTAAT
B4: CACACA_negctrl_site261 (dsDNA)
DNA 1: AACCTAAGCATTCTTCAAATTATATATGTAAAATGA
DNA 2: TCATTTTACATATATAATTTGAAGAATGCTTAGGTT
B5: CACACA_negctrl_site803 (dsDNA)
DNA 1: TTTTGTAAAAAAAAAAAAAAAGGAAAATTAAAATAA
DNA 2: TTATTTTAATTTTCCTTTTTTTTTTTTTTTACAAAA
B6: CACACA_site7194 (dsDNA)
DNA 1: CAAACAAACGAACACACACACACACGCAAAAATGAT
DNA 2: ATCATTTTTGCGTGTGTGTGTGTGTTCGTTTGTTTG
B7: CACACA_site2430 (dsDNA)
DNA 1: CAAACAAACAGACACACACACACACCCAAAAATGAT
DNA 2: ATCATTTTTGGGTGTGTGTGTGTGTCTGTTTGTTTG
B8: CACACA_site2431 (dsDNA)
DNA 1: AACAAACACAGACACACACACACACCCAAATGATTA
DNA 2: TAATCATTTGGGTGTGTGTGTGTGTCTGTGTTTGTT
B9: CACACA_negctrl_site934 (dsDNA)
DNA 1: AATTTTATTTAATTTTTTTGGGAAATGATAAAATTT
DNA 2: AAATTTTATCATTTCCCAAAAAAATTAAATAAAATT
B10: CACACA_site8345 (dsDNA)
DNA 1: AATACCCAAGGACACACACACACATATATATATATA
DNA 2: TATATATATATATGTGTGTGTGTGTCCTTGGGTATT
B11: CACACA_negctrl_site669 (dsDNA)
DNA 1: TAACTTTTATCCTTAATTCATATATAAGATTAAATC
DNA 2: GATTTAATCTTATATATGAATTAAGGATAAAAGTTA
B12: CACACA_negctrl_site1538 (dsDNA)
DNA 1: TTTTTTTTTAAGATGAAGATCAATATATAAATATAT
DNA 2: ATATATTTATATATTGATCTTCATCTTAAAAAAAAA
B13: CACACA_site6350 (dsDNA)
DNA 1: CACAAACAGACAAACACACACACACGGACATACATA
DNA 2: TATGTATGTCCGTGTGTGTGTGTTTGTCTGTTTGTG
B14: CACACA_site8410 (dsDNA)
DNA 1: AAAAAATCACAACACACACACACACTAATAAAAAAA
DNA 2: TTTTTTTATTAGTGTGTGTGTGTGTTGTGATTTTTT
B15: CACACA_site4553 (dsDNA)
DNA 1: AAAAAAAGATTATACACACACATATATAAACATACA
DNA 2: TGTATGTTTATATATGTGTGTGTATAATCTTTTTTT
B16: CACACA_negctrl_site640 (dsDNA)
DNA 1: GTATATATATTTCTTTAATAATTAAATTATAAATAT
DNA 2: ATATTTATAATTTAATTATTAAAGAAATATATATAC
B17: CACACA_negctrl_site1674 (dsDNA)
DNA 1: TATTTTAATTATAAATTTAAAAAAAAAAAGAAAAAA
DNA 2: TTTTTTCTTTTTTTTTTTAAATTTATAATTAAAATA
B18: CACACA_negctrl_site22 (dsDNA)
DNA 1: TTTTAAGATATAAATTAATACTTATATATATAGATA
DNA 2: TATCTATATATATAAGTATTAATTTATATCTTAAAA

Experiments:
Experiment in all cases: gcPBM; about 25 ug protein; PBS, 1% milk, 0.2 mg/ml BSA, salmon testes DNA, 0.03% Triton X-100
Details in all cases: tags: N-terminal GST (pGEX-4T-1), kept; label: surface-attached array probe
AP2-HC D1 = molecular target: T1, AP2-HC D1
AP2-LT D1 = molecular target: T2, AP2-LT D1
PF3D7_0420300 D1 = molecular target: T3, PF3D7_0420300 D1

Binder | binding signal (AP2-HC D1) | binding signal (AP2-LT D1) | binding signal (PF3D7_0420300 D1)
B1 | 11.9 ln median PBM intensity, better of two orientations | 10.7 ln median PBM intensity, better of two orientations | 
B2 | 9.26 ln median PBM intensity, better of two orientations | 8.65 ln median PBM intensity, better of two orientations | 
B3 | 9.26 ln median PBM intensity, better of two orientations | 8.44 ln median PBM intensity, better of two orientations | 
B4 | 9.41 ln median PBM intensity, better of two orientations | 8.81 ln median PBM intensity, better of two orientations | 
B5 | 9.16 ln median PBM intensity, better of two orientations | 8.33 ln median PBM intensity, better of two orientations | 
B6 | 11.8 ln median PBM intensity, better of two orientations | 10.8 ln median PBM intensity, better of two orientations | 10.4 ln median PBM intensity, better of two orientations
B7 | 12.2 ln median PBM intensity, better of two orientations | 10.6 ln median PBM intensity, better of two orientations | 
B8 | 11.7 ln median PBM intensity, better of two orientations | 10.8 ln median PBM intensity, better of two orientations | 
B9 | 9.22 ln median PBM intensity, better of two orientations | 8.39 ln median PBM intensity, better of two orientations | 
B10 | 11.8 ln median PBM intensity, better of two orientations | 10.8 ln median PBM intensity, better of two orientations | 
B11 | 9.41 ln median PBM intensity, better of two orientations | 8.63 ln median PBM intensity, better of two orientations | 8.85 ln median PBM intensity, better of two orientations
B12 | 8.98 ln median PBM intensity, better of two orientations | 8.23 ln median PBM intensity, better of two orientations | 
B13 | 10.6 ln median PBM intensity, better of two orientations | 10.2 ln median PBM intensity, better of two orientations | 
B14 | 12.3 ln median PBM intensity, better of two orientations | 10.7 ln median PBM intensity, better of two orientations | 
B15 | 10.7 ln median PBM intensity, better of two orientations |  | 10.1 ln median PBM intensity, better of two orientations
B16 | 9.37 ln median PBM intensity, better of two orientations | 8.59 ln median PBM intensity, better of two orientations | 
B17 | 9.42 ln median PBM intensity, better of two orientations | 8.52 ln median PBM intensity, better of two orientations | 
B18 | 9.27 ln median PBM intensity, better of two orientations | 8.45 ln median PBM intensity, better of two orientations | 
